B1: recombinant 6xHis-GSAAT (enzyme)
chain: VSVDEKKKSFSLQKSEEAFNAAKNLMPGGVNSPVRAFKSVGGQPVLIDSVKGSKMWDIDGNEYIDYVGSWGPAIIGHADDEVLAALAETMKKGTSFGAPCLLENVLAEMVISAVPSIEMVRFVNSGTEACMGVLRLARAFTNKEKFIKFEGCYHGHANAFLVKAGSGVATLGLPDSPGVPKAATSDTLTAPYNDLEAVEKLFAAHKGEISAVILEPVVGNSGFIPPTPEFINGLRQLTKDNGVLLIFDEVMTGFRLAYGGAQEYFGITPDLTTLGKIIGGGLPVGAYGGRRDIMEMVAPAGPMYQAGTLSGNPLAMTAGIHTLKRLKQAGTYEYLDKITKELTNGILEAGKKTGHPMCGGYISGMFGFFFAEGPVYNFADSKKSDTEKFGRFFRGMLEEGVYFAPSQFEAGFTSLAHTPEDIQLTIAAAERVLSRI

Experiments:
Details in all cases: both partners purified
[1] = biological target: B1; experiment: MST; 6xHis-GBP labelled with RED-NHS 2nd generation as target, with or without GluTR, ligand in 1:1 dilutions from 5 nM to 110 µM; Monolith NT.115, 30°C, 40% LED power, PBS
[2] = biological target: T1, labelled 6xHis-GBP incubated with GluTR (GBP/GluTR) (Arabidopsis thaliana, UniProt Q9LU39 43-317; P42804 62-543, RED-NHS 2nd generation dye); experiment: as above
T1 construct: as m7; Glutamyl-tRNA reductase (GluTR), Arabidopsis thaliana; The sentence on this titration says only GluTR; 6xHis-GluTR is named for the titration before it; source: recombinant proteins mixed before the titration (6xHis-GBP: E. coli Rosetta 2, purified)

[3] = biological target: T2, recombinant 6xHis-GluTR (Arabidopsis thaliana, UniProt P42804 62-543); experiment: MST; 6xHis-GSAAT labelled with RED-NHS 2nd generation as target, 6xHis-GluTR titrated; Monolith NT.115, 30°C, PBS
T2 construct: Glutamyl-tRNA reductase (GluTR), Arabidopsis thaliana; Named only in the results on MST; the methods on purification list only GST-GluTR

Binder	Kd [1] [nM]	Kd [2] [nM]	Kd [3] [nM]
recombinant 6xHis-GBP (natural protein, Arabidopsis thaliana, UniProt Q9LU39 43-317, looked up, Labelled with the dye RED-NHS 2nd generation where it was the MST target; unlabelled in the in vitro pull-down; also called 6× His-GBP; source: E. coli Rosetta 2, purified (Ni-NTA)) SVSTTLDTPATASTHKPFPAEVSRSIMELSSVGTLSTLTHDGWPLGVGVRFAVDKDGTPVLCLNRSVSPDKRSALHVQLEQCGLRTPQCTIQGSIGRPGDDTVLKRLSATWREKFGEEVKEDSLYVVAVDRVLQMEDFMEDGIWVASSDYKNASPDPLRDIAEDIVNQINANNMEDIFRFCNVYVDLDFVVSETKMIWMDRLGFDLRVWSPRGVYDVRIPFPMEVTDEKGAKSSFNGMSQLAWEVEKSYCPADFNKVKLLKQVVGSSHSHKGGGQ	178	–	–
B1	–	940	3000

From paper PMC9614494, “Glutamate 1-semialdehyde aminotransferase is connected to GluTR by GluTR-binding protein and contributes to the rate-limiting step of 5-aminolevulinic acid synthesis” (The Plant Cell, 2022)
